Assay results from patent US20190092852A1 (Genentech, published 2019).

B1: H4H9659P (antibody, IgG4, V domains shown)
VH: QVQLVQSGAEVKKPGASVKVSCKASGYTFNSYGISWVRQAPGQGLEWMGWISSHNGNSHYVQKFQGRVSMTTDTSTSTAYMELRSLRSDDTAVYYCARHSYTTSWYGGFDYWGQGTLVTVSS
VL: DIQMTQSPSSVSASVGDRVTITCRASQGFSSWLAWYQQKPGKAPQLLIYAASSLQSGVPSRFSGSGSGSDFTLTISSLQPEDFATYYCQQANSFPLTFGGGTKVEIK
notes: also called RG7
B2: 10C12.38.H6.87Y.58I IgG4 (antibody, V domains shown)
VH: EVQLVESGGGLVQPGGSLRLSCAASGFTFSSFSMSWVRQAPGKGLEWVATISGGKTFTDYVDSVKGRFTISRDDSKNTLYLQMNSLRAEDTAVYYCTRANYGNWFFEVWGQGTLVTVSS
VL: EIVLTQSPATLSLSPGERATLSCRASESVAKYGLSLLNWFQQKPGQPPRLLIFAASNRGSGIPARFSGSGSGTDFTLTISSLEPEDFAVYYCQQSKEVPFTFGQGTKVEIKR
notes: also called anti-IL33 10C12.38.H6.87Y.58I IgG4

What was measured:
[1] = molecular target: T1, human IL-33 (R&D Systems, #3625-IL-010/CF) (human, UniProt O95760 112-270); assay: cell-based or functional assay
T1 sequence (looked up): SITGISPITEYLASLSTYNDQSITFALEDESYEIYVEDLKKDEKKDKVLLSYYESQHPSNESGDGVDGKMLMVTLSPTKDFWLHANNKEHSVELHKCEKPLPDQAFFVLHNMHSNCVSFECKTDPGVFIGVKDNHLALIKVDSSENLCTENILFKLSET

[2] = molecular target: T1, human IL-33 (R&D Systems, …); assay: cell-based or functional assay; remark: listed apart in the source
[3] = molecular target: T1, human IL-33 (R&D Systems, …); assay: SPR Biacore T200, 37 C
Summary of the method: (§1)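 Antibodies captured via anti-Fc on CM5 chip; IL-33 injected at 3.7–100 nM (three-fold series), 4 min association, 10 min dissociation, 30 μl/min, ADA pH 7.4 buffer with 0.15 M NaCl, EDTA, Tween-20, at 25 °C or 37 °C. KD = koff/kon from 1:1 Langmuir fit; t1/2 = ln(2)/(60*koff).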

cyno IL-33 N-His = molecular target: T2, cyno IL-33 N-His (cynomolgus monkey); assay: SPR Biacore T200, 37 C
T2 chain: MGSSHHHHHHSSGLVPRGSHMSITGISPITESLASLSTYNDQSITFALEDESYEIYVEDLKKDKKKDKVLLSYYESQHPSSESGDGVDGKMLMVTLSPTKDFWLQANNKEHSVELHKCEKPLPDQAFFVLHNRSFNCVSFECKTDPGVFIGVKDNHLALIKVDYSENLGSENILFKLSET
Summary of the method: as §1

biotinylated cyno IL-33 = molecular target: T3, biotinylated cyno IL-33 (cynomolgus monkey, UniProt A0A2K5W3I1 112-269, biotin-labeled with EZ-LINK NHS-PEG4-Biotin); assay: competitive ELISA, biotin-cyIL-33 to coated hST2-Fc
T3 construct: also called biotin-cyIL-33
T3 sequence: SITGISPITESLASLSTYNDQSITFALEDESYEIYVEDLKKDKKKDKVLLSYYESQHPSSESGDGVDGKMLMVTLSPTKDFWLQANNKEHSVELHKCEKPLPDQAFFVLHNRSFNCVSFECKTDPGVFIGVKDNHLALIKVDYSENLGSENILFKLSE
Summary of the method: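 Recombinant human ST2-Fc coated at 1 μg/ml; biotin-IL-33 (final 20 pM human, 45 pM cyno) premixed 1 h RT with serially diluted antibody (0–300 nM final), then bound to ST2-Fc 1 h RT. Streptavidin-polyHRP/TMB, A450; IC₅₀ from four-parameter fit, max blocking relative to IL-33-alone signal minus background.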

biotinylated human IL-33 = molecular target: T4, biotinylated human IL-33 (human, UniProt O95760 112-270, biotin-labeled with EZ-LINK NHS-PEG4-Biotin); assay: competitive ELISA, biotin-huIL-33 to coated hST2-Fc
T4 construct: also called biotin-huIL-33
T4 sequence (looked up): T1 sequence (looked up)

[4] = molecular target: T1, human IL-33 (R&D Systems, …); assay: cell-based or functional assay; remark: listed apart in the source

IC50; IFN-gamma ELISA, primary human NK cells, 260 pM hIL-33 + IL-12 [1]	Ph-p38 MFI at 0.4 nM Ab (500 pM human IL-33, primary basophils) [2]	Kd [3]	koff [3]	kon [3]	t1/2 [3]	Kd (cyno IL-33 N-His)	koff (cyno IL-33 N-His)	kon (cyno IL-33 N-His)	t1/2 (cyno IL-33 N-His)	IC50 (biotinylated cyno IL-33)	Maximum Blocking (biotinylated cyno IL-33)	IC50 (biotinylated human IL-33)	Maximum Blocking (biotinylated human IL-33)	Ph-p38 MFI at 2 nM Ab (500 pM human IL-33, primary basophils) [4]	Binder
5.1e-10 M	119 MFI	0.462 nM	0.000498 s⁻¹	1.08e+06 M⁻¹ s⁻¹	23 min	4.13 nM	0.00114 s⁻¹	277000 M⁻¹ s⁻¹	10 min	47 nM	42%	0.23 nM	88%	49 MFI	B1
3.3e-11 M	34 MFI	0.0889 nM	0.000547 s⁻¹	6.16e+06 M⁻¹ s⁻¹	21 min	0.476 nM	0.000804 s⁻¹	1.69e+06 M⁻¹ s⁻¹	14 min	0.43 nM	87%	0.021 nM	92%	23 MFI	B2
